These results are taken from publication PMC4128672.

The assay addresses CDC42 (cell division cycle 42) (rat (endogenous in rat testis)) (UniProt Q8CFN2). The experiment in a line: proximity ligation; Duolink II in situ PLA on Bouin-fixed, paraffin-embedded rat testis sections; antigen retrieval in citrate buffer (10 mM, pH 6.0, 0.05% Tween 20); anti-ApoH goat polyclonal 2.5 ug/ml and anti-CDC42 rabbit polyclonal 5 ug/ml; probes anti-rabbit PLUS and anti-goat MINUS; controls with one primary antibody only.
UniProt Q8CFN2, sequence (Q8CFN2 whole entry): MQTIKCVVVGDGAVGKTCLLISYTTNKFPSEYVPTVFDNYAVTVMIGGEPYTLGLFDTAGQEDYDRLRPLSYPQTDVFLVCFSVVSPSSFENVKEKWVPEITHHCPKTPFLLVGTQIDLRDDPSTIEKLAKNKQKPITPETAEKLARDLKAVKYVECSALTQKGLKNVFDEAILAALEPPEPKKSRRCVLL

As for “APOH (apolipoprotein H) (from UniProt P26644 20-297) (natural protein)”, the PLA signals per 0.25 mm^2 (PLA signals/0.25 mm^2) came to 312.
